Measured values published in patent US20260000597A1 (priority 2018, published 2026).

target: AchR (Homo sapiens, UniProt P02708); test: ELISA of screened peptide phages on AchR versus streptavidin (OD450); assay type: binding; details: ELISA of selected 11-mer (L2) peptide phages on AchR, absorbance at 450 nm; Spep-2 positive control
Method: The output phages for the 4th and 5th rounds of biopanning in Example 13-1 were inoculated to E. coli, and plated on the agar plates so as to form 100-200 plaques per plate. The plaques were inoculated on 1 ml of an SB liquid medium containing 50 μg/ml of ampicillin by using a sterile tip, and cultured with shaking at 37° C. for 5 hours, followed by the addition of 30 μl of helper phages, and then cultured at 37° C. and 200 rpm for one day. The culture was centrifuged at 12,000 rpm for 2 minutes to collect supernatant, and 2% BSA was added to the supernatant, and used for phage screening.
In a 96-well ELISA plate, 5 μg/ml AchR or streptavidin was added at 50 μl per well, and left at 4° C. overnight. The next day, the solution in each well was discarded, followed by the addition of 2% BSA, and then blocked at room temperature for 2 hours. After the solution was all discarded, the wells were washed three times with Tris (20 mM, pH7). In addition, 100 μl of each of the phage solutions obtained from the above-prepared plaques was dispensed into wells and left at 30° C. for 1 hour. After the solution in the wells was all discarded, the wells were washed three times with Tris (20 mM, pH 7), and then the HRP-conjugated anti-M13 antibody diluted 1:2,000 was added at 100 μl per well, followed by culture at 30° C. for 1 hour. After the wells were washed three times with Tris (20 mM, pH7), 100 μl of tetramethylbenzidine was added to each well to induce a color development reaction, and then the reaction was stopped by the addition of 100 μl of 1M H2SO4, and the absorbance at 450 nm (OD450) was measured. The measured absorbance was converted into a ratio of AchR absorbance to streptavidin absorbance (AchR signal/streptavidin signal), and the results are shown in FIGS. 14 to 16.

Chain of AchR (P02708 21-457): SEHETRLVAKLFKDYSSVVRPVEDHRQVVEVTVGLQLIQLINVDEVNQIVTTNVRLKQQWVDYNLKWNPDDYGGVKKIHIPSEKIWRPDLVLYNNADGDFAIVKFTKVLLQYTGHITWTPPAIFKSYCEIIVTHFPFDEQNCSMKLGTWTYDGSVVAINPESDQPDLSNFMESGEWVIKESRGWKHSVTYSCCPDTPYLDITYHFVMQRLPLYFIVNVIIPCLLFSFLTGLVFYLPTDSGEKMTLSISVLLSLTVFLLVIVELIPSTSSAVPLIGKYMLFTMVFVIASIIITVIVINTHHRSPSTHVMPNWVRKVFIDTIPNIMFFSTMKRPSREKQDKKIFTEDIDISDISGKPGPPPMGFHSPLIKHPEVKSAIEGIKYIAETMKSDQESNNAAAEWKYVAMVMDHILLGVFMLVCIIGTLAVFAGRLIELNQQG

In order of falling OD:
1. L2-66 (PNYKWRKSRRR; AchR binding peptide) [Peptide L2-66]  0.798
2. L2-3 (SPVRWKRLCLR; AchR binding peptide) [Peptide L2-3]  0.796
3. L2-57 (LEHKERKDDFR; AchR binding peptide) [Peptide L2-57]  0.795
4. L2-89 (PPFKFRKPLGR; AchR binding peptide) [Peptide L2-89]  0.749
5. L2-180 (DPEKWRKFYDR; AchR binding peptide) [Peptide L2-180]  0.744
6. L2-63 (IDGKWRKICTR; AchR binding peptide) [Peptide L2-63]  0.742
7. L2-62 (NLHKPKRDLPK; AchR binding peptide) [Peptide L2-62]  0.736
8. L2-169 (HDPRHKKTPTK; AchR binding peptide) [Peptide L2-169]  0.733
9. L2-187 (TAAKWKKIIMK; AchR binding peptide) [Peptide L2-187]  0.731
10. L2-188 (CLWRLRKDNGR; AchR binding peptide) [Peptide L2-188]  0.73
11. L2-168 (GGAKNKKVVSR; AchR binding peptide) [Peptide L2-168]  0.725
12. L2-163 (PHARTRKNITK; AchR binding peptide) [Peptide L2-163]  0.725
13. L2-17 (GLNRWRRCHHK; AchR binding peptide) [Peptide L2-17]  0.72
14. L2-21 (MVMKWKRWNQR; AchR binding peptide) [Peptide L2-21]  0.719
15. L2-198 (DIYKGKRTLVK; AchR binding peptide) [Peptide L2-198]  0.718
16. L2-96 (ISDKAKRQHFK; AchR binding peptide) [Peptide L2-96]  0.708
17. L2-15 (HTTRGKRCDPR; AchR binding peptide) [Peptide L2-15]  0.705
18. L2-58 (ANPKNRKDNLR; AchR binding peptide) [Peptide L2-58]  0.701
19. L2-116 (SHSRQRKTPLR; AchR binding peptide) [Peptide L2-116]  0.699
20. L2-189 (AHIKSRKVWSR; AchR binding peptide) [Peptide L2-189]  0.696
21. L2-82 (PDTRWKRVLFK; AchR binding peptide) [Peptide L2-82]  0.693
22. L2-191 (PDSRLKKHEAK; AchR binding peptide) [Peptide L2-191]  0.689
23. L2-37 (TLWKVRKAYSR; AchR binding peptide) [Peptide L2-37]  0.66
24. L2-117 (DNGKIRRCLGK; AchR binding peptide) [Peptide L2-117]  0.607
25. L2-150 (EDVRVKRQTCR; AchR binding peptide) [Peptide L2-150]  0.579
26. L2-196 (QNMRMKRFIQR; AchR binding peptide) [Peptide L2-196]  0.574
27. L2-122 (MGDRPRKWDSR; AchR binding peptide) [Peptide L2-122]  0.558
28. L2-135 (FPGKNRKYCSR; AchR binding peptide) [Peptide L2-135]  0.557
29. L2-133 (DFSRDRRCLSK; AchR binding peptide) [Peptide L2-133]  0.526
30. L2-138 (IMERQRKSQHR; AchR binding peptide) [Peptide L2-138]  0.509
31. L2-42 (YYAKSKKYMVR; AchR binding peptide) [Peptide L2-42]  0.508
32. L2-145 (MNEKPKKNDQK; AchR binding peptide) [Peptide L2-145]  0.468
33. L2-134 (VWNKVKRWLER; AchR binding peptide) [Peptide L2-134]  0.44

same assay, conditions: ELISA of selected 14-mer (L3) peptide phages on AchR, absorbance at 450 nm; Spep-2 positive control

In order of falling OD:
1. L3-1 (ALGRTKRLHMRVHV; AchR binding peptide) [Peptide L3-1]  0.853
2. L3-21 (NPMKLRKAETKHNV; AchR binding peptide) [Peptide L3-21]  0.843
3. L3-11 (FMQKCKKWWDRAVF; AchR binding peptide) [Peptide L3-11]  0.8
4. L3-29 (CASKPRRTYLRAAN; AchR binding peptide) [Peptide L3-29]  0.789
5. L3-174 (SSGKWKRPHAKYIV; AchR binding peptide) [Peptide L3-174]  0.783
6. L3-199 (PQTRYRKYFYRPQM; AchR binding peptide) [Peptide L3-199]  0.781
7. L3-10 (AHGKDRRYVEKLEV; AchR binding peptide) [Peptide L3-10]  0.769
8. L3-61 (THDKCKKHNDKQAH; AchR binding peptide) [Peptide L3-61]  0.768
9. L3-62 (YPERPRKLQDKSYS; AchR binding peptide) [Peptide L3-62]  0.766
10. L3-20 (CCFKLKKAYNKGPF; AchR binding peptide) [Peptide L3-20]  0.755
11. L3-179 (YNARVKREGIKNIT; AchR binding peptide) [Peptide L3-179]  0.743
12. L3-84 (HTFKLRKLCQKLFE; AchR binding peptide) [Peptide L3-84]  0.739
13. L3-40 (ASPKGRRPTFRPQH; AchR binding peptide) [Peptide L3-40]  0.733
14. L3-65 (CLEKLRKAVHRQRR; AchR binding peptide) [Peptide L3-65]  0.731
15. L3-44 (PPFRLRKPLWRPQR; AchR binding peptide) [Peptide L3-44]  0.719
16. L3-78 (FITKSRRQQFRNQG; AchR binding peptide) [Peptide L3-78]  0.712
17. L3-93 (EGGRIKRPNYRGDG; AchR binding peptide) [Peptide L3-93]  0.7
18. L3-115 (NDPRLRKHNHRCCT; AchR binding peptide) [Peptide L3-115]  0.685
19. L3-103 (NDWKLRKDFWRNHF; AchR binding peptide) [Peptide L3-103]  0.676
20. L3-57 (EEIKQKKLHLRVWF; AchR binding peptide) [Peptide L3-57]  0.674
21. L3-92 (NLERTKKHGLKGYM; AchR binding peptide) [Peptide L3-92]  0.657
22. L3-106 (DLVRKRKTMLRQLV; AchR binding peptide) [Peptide L3-106]  0.642
23. L3-144 (CSYKLRRCDMRLWG; AchR binding peptide) [Peptide L3-144]  0.578

same assay, conditions: phage ELISA, absorbance at 450 nm, 5 μg/ml AchR; 4th and 5th round biopanning phages

In order of falling OD:
1. REKRYMAR [Peptide L1-91]  0.826
2. KTKKIHSK [Peptide L1-22]  0.732
3. KFKKHGVK [Peptide L1-21]  0.65
4. KMRRWWLK [Peptide L1-190]  0.644
5. RQRRNDMK [Peptide L1-9]  0.639
6. KWRKRRIK [Peptide L1-46]  0.637
7. RCKRFVGK [Peptide L1-173]  0.63
8. KVKRVWGR [Peptide L1-163]  0.618
9. RYRRWFYR [Peptide L1-155]  0.618
10. RSKKINNK [Peptide L1-71]  0.618
11. RWKRSEQR [Peptide L1-32]  0.607
12. RCKKNPEK [Peptide L1-66]  0.605
13. RQKKPWVK [Peptide L1-31]  0.604
14. RIRRWWVR [Peptide L1-82]  0.596
15. KIKKLSQK [Peptide L1-168]  0.588
16. RNKRMDGK [Peptide L1-157]  0.585
17. KPKREMHK [Peptide L1-79]  0.583
18. RYKKQQYK [Peptide L1-167]  0.581
19. KNKRTPVK [Peptide L1-86]  0.551
20. KDKKMPQR [Peptide L1-185]  0.55
21. KVKKIYYR [Peptide L1-144]  0.503
22. KFRKGPYR [Peptide L1-135]  0.479
23. KYKREEYR [Peptide L1-161]  0.474
24. RSKRMNGK [Peptide L1-58]  0.472
25. KPRKIQGR [Peptide L1-137]  0.458
26. RFRKMIPK [Peptide L1-115]  0.451
27. RVKRFVPK [Peptide L1-112]  0.431
28. KPKKGGWK [Peptide L1-148]  0.426
29. KDKKQWGR [Peptide L1-114]  0.42
30. RWRRSVIK [Peptide L1-106]  0.417
31. RHRRANFR [Peptide L1-147]  0.415
32. KCRKTMGR [Peptide L1-123]  0.409
33. GGGRRRRRRRR [Peptide L2-204, reference compound]  0.311
34. GGRKKRRQRRRGGG [Peptide L3-202, reference compound]  0.301
